Data on one protein can be found in PMC9823235 (The Journal of Biological Chemistry, 2022).

The data set deals with the molecule itself. Nature of the data set: cryo-EM structure.

B1: B subunit of Stx2a ([change]), pentameric (natural protein)
chain: ADCAKGKIEFSKYNEDDTFTVKVDGKEYWTSRWNLQPLLQSAQLTGMTVTIKSSTCESGSGFAEVQFNND
On to B1, for which the stoichiometry N (commonly a count of units in the complex or per binding partner) was determined as 5.
